Test results taken from US20180057581A1 (MorphoSys, published 2018).

T1: human M-CSF (human, UniProt P09603 33-255, limits assumed)
T1 construct: also called M-CSF (human); CSF-1
T1 sequence: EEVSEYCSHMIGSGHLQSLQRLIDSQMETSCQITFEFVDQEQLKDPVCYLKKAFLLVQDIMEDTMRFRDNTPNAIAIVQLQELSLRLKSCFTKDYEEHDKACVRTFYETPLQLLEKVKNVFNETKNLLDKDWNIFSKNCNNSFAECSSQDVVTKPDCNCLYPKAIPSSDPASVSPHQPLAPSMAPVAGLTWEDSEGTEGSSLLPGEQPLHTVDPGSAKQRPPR

T2: Recombinant cynomolgus monkey sgM-CSF (cynomolgus (Macaca fascicularis), UniProt P09603 33-255 (human entry), limits assumed)
T2 construct: used also where only 'cynomolgus M-CSF' is printed (ELISA result, SET); also called cynomolgus sgM-CSF; cyno sgM-CSF
T2 chain: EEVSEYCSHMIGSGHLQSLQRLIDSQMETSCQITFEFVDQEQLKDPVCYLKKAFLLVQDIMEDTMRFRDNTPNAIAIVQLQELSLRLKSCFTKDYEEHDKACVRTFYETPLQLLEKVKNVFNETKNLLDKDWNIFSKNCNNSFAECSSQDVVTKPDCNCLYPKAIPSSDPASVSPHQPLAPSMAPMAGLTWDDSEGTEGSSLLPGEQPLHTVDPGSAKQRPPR

T3: Recombinant human sgM-CSF (human, UniProt P09603 33-255)
T3 sequence: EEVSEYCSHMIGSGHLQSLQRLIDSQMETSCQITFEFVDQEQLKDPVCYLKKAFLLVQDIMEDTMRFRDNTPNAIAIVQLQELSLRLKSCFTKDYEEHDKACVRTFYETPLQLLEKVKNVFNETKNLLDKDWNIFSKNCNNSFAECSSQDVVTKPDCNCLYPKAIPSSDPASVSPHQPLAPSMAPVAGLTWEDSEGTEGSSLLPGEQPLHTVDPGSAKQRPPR


Tests used:
human M-CSF [1] = molecular target: T1, human M-CSF; experiment: ELISA
Description: (§1) BSA was used as a negative control substrate.
(§2) After blocking of plates with 5% skim milk powder in PBS, Fab-containing E. coli lysates, IgG-containing cell culture supernatants or purified IgG or Fab proteins were added. Binding of Fabs or IgGs was detected by F(ab)₂ specific goat anti-human IgG conjugated to alkaline phosphatase (Dianova Cat# 109-055-097; diluted 1:5000) using Attophos fluorescence substrate (Roche, #11681982001). Fluorescence emission at 535 nm was recorded with excitation at 430 nm.

[2] = molecular target: T2, Recombinant cynomolgus monkey sgM-CSF; experiment: ELISA
Description: as §1, §2

[3] = molecular target: T3, Recombinant human sgM-CSF; experiment: cell-based or functional assay
[4] = molecular target: T2, Recombinant cynomolgus monkey sgM-CSF; experiment: cell-based or functional assay
GM-CSF = GM-CSF (Homo sapiens (Human), UniProt P04141 18-144); experiment: not described (Table 12, criterion Binding)
Chain of GM-CSF (P04141 18-144 limits assumed): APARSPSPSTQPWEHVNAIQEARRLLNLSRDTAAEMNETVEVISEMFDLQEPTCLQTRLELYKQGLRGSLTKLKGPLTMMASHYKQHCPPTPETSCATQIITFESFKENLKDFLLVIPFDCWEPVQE

[5] = molecular target: T3, Recombinant human sgM-CSF; experiment: Table 12 summary, criterion Binding, Human M-CSF; assay and antibody format not named there
Description: (§3) The monovalent affinity of the antibodies of the present disclosure was determined by soluble equilibrium titration (Haenel et al. (2005) Anal Biochem 339, 182-4).

[6] = molecular target: T3, Recombinant human sgM-CSF; experiment: Receptor binding assay, inhibition of human M-CSF binding to M-CSF receptor (competitor CSF1-R-Fc); Table 12 summary
[7] = molecular target: T2, Recombinant cynomolgus monkey sgM-CSF; experiment: Receptor binding assay, inhibition of cynomolgus M-CSF binding to M-CSF receptor (competitor CSF1-R-Fc); Table 12 summary
Description: Complexes were then transferred to 384 well MSD plates coated with 2 μg/ml of the corresponding receptor. Plates were then washed and incubated with the streptavidin/ECL conjugate for 2 h with shaking at room temperature. 35 μl MSD read buffer T with surfactant was then added per well and subsequently measured using MSD Sector Imager 6000.

human M-CSF [8] = molecular target: T1, human M-CSF; experiment: soluble equilibrium titration (SET), Fab, monovalent
Description: as §3

[9] = molecular target: T2, Recombinant cynomolgus monkey sgM-CSF; experiment: as above
Description: as §3

Row | Binder | ELISA fluorescence units (human M-CSF [1]) [units] | ELISA fluorescence units [2] [units] | Cell viability assay (IC50), Human M-CSF [3] [nM] | Cell viability assay (IC50), Cynomolgus M-CSF [4] [nM] | binding result (GM-CSF) | Kd [5] [nM] | IC50 [6] [nM] | IC50 [7] [nM] | Kd (human M-CSF [8]) [nM] | Kd [9] [nM]
1 | 8.10.3F (format not stated) (antibody, V domains shown, Prior art antibody; also called 8.10.F3) VH: EVQLVESGGGLVQPGGSLRLSCAASGFTFSSFSMTWVRQAPGKGLEWVSYISSRSSTISYADSVKGRFTISRDNAKNSLYLQMNSLRDEDTAVYYCARDPLLAGATFFDYWGQGTLVTVSS VL: not shown | > 35000 | > 35000 | 0.071 | 0.085 | no binding | 0.038 | 0.031 | 0.021 | – | –
2 | HeRX1-10G1 (format not stated) (antibody, V domains shown, Prior art antibody) VH: QVQLQESGPGLVKPSQTLSLTCTVSDYSITSDYAWNWIRQFPGKGLEWMGYISYSGSTSYNPSLKSRITISRDTSKNQFSLQLNSVTAADTAVYYCASFDYAHAMDYWGQGTTVTVSS VL: DIVLTQSPAFLSVTPGEKVTFTCQASQSIGTSIHWYQQKTDQAPKLLIKYASESISGIPSRFSGSGSGTDFTLTISSVEAEDAADYYCQQINSWPTTFGGGTKLEIKR | > 35000 | > 35000 | 0.004 | 0.004 | no binding | > 1 | 0.027 | 0.028 | – | –
3 | Meriem, Fab (Fab, V domains shown) VH: QVQLQQSGPGLVKPSQTLSLTCAISGDSVSTSSAAWNWIRQSPSRGLEWLGRTYYRSKWKKEYAQSVKSRITINPDTSKNQFSLQLNSVTPEDTAVYYCARDRYYYSAFDYWGQGTLVTVSS VL: QSALTQPASVSGSPGQSITISCTGTSSDVGGYNSVSWYQQHPGKAPKLIIYAVSNRPSGVSNRFSGSKSGNTASLTISGLQAEDEADYYCASYDERFTRVFGGGTKLTVLG | – | – | – | – | – | – | – | – | 0.011 | 0.013
4 | Madeleine, Fab (Fab, V domains shown) VH: QVQLQQSGPGLVKPSQTLSLTCAISGDSVSSNSAAWNWIRQSPSRGLEWLGRTYYRSKWKKEYAQSVKSRITINPDTSKNQFSLQLNSVTPEDTAVYYCARDRYYYSAFDYWGQGTLVTVSS VL: QSALTQPASVSGSPGQSITISCTGTSSDVGGYNSVSWYQQHPGKAPKLMIYAVSNRPSGVSNRFSGSKSGNTASLTISGLQAEDEADYYCASYDERFTRVFGGGTKLTVLG | – | – | – | – | – | – | – | – | 0.028 | 0.03
5 | Romaine, Fab (Fab, V domains shown) VH: EVQLVESGGGLVKPGGSLRLSCAASGFTFSIYAMSWVRQAPGKGLEWVGRIKSNADGGTTEYAAPVKGRFTISRDDSKNTLYLQMNSLKTEDTAVYYCARMRYYSDLYFDPWGQGTLVTVSS VL: DIELTQPPSVSVSPGQTASITCSGDAIGSKYVHWYQQKPGQAPVLVISKDNKRPSGIPERFSGSNSGNTATLTISGTQAEDEADYYCQTATVSSYWWVFGGGTKLTVLG | – | – | – | – | – | – | – | – | 0.013 | 0.007
